We go through one protein from patent US20080199514A1 (BURNHAM INSTITUTE, published 2008).

The target in the series is T1, Lck phosphopeptide (ARLIEDNEpYTAAREG).
T1 chain: ARLIEDNEYTAAREG

B1: full length Hemagglutinin (HA) tagged LYP having W620 (protein)
chain: MDQREILQKFLDEAQSKKITKEEFANEFLKLKRQSTKYKADKTYPTTVAEKPKNIKKNRYKDILPYDYSRVELSLITSDEDSSYINANFIKGVYGPKAYIATQGPLSTTLLDFWRMIWEYSVLIIVMACMEYEMGKKKCERYWAEPGEMQLEFGPFSVSCEAEKRKSDYIIRTLKVKFNSETRTIYQFHYKNWPDHDVPSSIDPILELIWDVRCYQEDDSVPICIHCSAGCGRTGVICAIDYTWMLLKDGIIPENFSVFSLIREMRTQRPSLVQTQEQYELVYNAVLELFKRQMDVIRDKHSGTESQAKHCIPEKNHTLQADSYSPNLPKSTTKAAKMMNQQRTKMEIKESSSFDFRTSEISAKEELVLHPAKSSTSFDFLELNYSFDKNADTTMKWQTKAFPIVGEPLQKHQSLDLGSLLFEGCSNSKPVNAAGRYFNSKVPITRTKSTPFELIQQRETKEVDSKENFSYLESQPHDSCFVEMQAQKVMHVSSAELNYSLPYDSKHQIRNASNVKHHDSSALGVYSYIPLVENPYFSSWPPSGTSSKMSLDLPEKQDGTVFPSSLLPTSSTSLFSYYNSHDSLSLNSPTNISSLLNQESAVLATAPRIDDEIPPPLPVWTPESFIVVEEAGEFSPNVPKSLSSAVKVKIGTSLEWGGTSEPKKFDDSVILRPSKSVKLRSPKSELHQDRSSPPPPLPERTLESFFLADEDCMQAQSIETYSTSYPDTMENSTSSKQTLKTPGKSFTRSKSLKILRNMKKSICNSCPPNKPAESVQSNNSSSFLNFGFANRFSKPKGPRNPPPTWNI
Turning to B1, the “Dephosphorylation of an Lck phosphopeptide by immunoprecipitated HA-tagged LYP; specific activity relative to LYP*R620” value is on record as “LYP*W620 displayed a 57.2% (±9.8%, n=5) higher specific activity when corrected for amount of protein”.
